Columns and labels:
Experiment in all cases: sandwich ELISA; receptor ECD/Fc chimera captured on anti-Fc plates, biotin-labeled ligand titrated, streptavidin-HRP detection
[1] = target: T1, recombinant human EGFR/Fc chimera (receptor extracellular domain/Fc chimera) (human, UniProt P00533 25-645)
T1 construct: extracellular domain; Bought from R&D Systems; Captured on plates coated with anti-Fc antibody; also called HER/Fc chimera-EGFR; HER1; not shown: Fc part (and any linker) of the purchased R&D Systems chimera

[2] = target: T2, recombinant human HER4/Fc chimera (receptor extracellular domain/Fc chimera) (human, UniProt Q15303 26-651)
T2 construct: extracellular domain; Bought from R&D Systems; Captured on plates coated with anti-Fc antibody; not shown: Fc part (and any linker) of the purchased R&D Systems chimera
T2 sequence (looked up): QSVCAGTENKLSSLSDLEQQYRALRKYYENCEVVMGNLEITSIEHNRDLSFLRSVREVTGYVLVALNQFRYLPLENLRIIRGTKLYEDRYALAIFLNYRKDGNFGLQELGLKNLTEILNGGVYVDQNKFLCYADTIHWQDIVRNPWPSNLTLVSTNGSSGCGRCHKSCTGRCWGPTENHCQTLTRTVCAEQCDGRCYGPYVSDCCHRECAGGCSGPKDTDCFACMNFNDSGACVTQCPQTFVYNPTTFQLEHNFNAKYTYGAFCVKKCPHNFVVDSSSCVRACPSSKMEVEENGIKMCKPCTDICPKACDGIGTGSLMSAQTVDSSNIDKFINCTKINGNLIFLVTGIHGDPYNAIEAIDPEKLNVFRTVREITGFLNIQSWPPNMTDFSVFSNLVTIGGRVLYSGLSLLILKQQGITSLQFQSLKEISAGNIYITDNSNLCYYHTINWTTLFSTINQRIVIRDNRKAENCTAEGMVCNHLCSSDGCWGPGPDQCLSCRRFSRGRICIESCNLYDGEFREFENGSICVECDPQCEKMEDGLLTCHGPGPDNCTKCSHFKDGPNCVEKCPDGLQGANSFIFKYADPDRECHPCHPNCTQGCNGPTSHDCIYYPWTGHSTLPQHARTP

[3] = target: T3, recombinant human HER3/Fc chimera (receptor extracellular domain/Fc chimera) (human, UniProt P21860 20-643)
T3 construct: extracellular domain; Bought from R&D Systems; Captured on plates coated with anti-Fc antibody; not shown: Fc part (and any linker) of the purchased R&D Systems chimera
T3 sequence (P21860 20-643, change not shown): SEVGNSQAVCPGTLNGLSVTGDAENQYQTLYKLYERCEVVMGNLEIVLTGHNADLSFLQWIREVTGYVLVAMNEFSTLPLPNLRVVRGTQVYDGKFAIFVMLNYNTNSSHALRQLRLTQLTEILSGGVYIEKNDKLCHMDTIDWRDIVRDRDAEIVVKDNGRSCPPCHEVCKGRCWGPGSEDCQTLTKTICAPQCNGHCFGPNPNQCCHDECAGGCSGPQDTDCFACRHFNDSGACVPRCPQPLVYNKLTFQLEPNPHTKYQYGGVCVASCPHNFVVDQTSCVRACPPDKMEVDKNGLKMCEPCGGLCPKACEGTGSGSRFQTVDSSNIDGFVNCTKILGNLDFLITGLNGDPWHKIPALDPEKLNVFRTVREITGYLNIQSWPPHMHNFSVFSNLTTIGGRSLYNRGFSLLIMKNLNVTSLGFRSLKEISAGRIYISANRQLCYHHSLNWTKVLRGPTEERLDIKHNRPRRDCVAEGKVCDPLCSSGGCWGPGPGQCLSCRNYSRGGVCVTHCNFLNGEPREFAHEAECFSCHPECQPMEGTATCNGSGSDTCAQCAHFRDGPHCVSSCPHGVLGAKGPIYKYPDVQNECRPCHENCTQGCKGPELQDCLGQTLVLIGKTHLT

- Kd [1]: 5 nM
- Kd [2]: 4 nM
- Kd [3]: 6 nM
B1: Pan-HER DNL B5-3M2 tagged with biotin (ligand)
chain: NSDSECPLSHDGYCLNDGVCMYTEAKDEYACNCVVGYIGERCQYYDLL
modifications: not fully specified; biotin label; paragraph 113 says derivatized at the N-terminus; paragraph 97 says B5-3M2 has two sites for biotinylation, the N terminus and K26
notes: Made in E. coli; also called tagged (biotinylated) DNL; EGF1-48 H16N, I23T, L26K, K28E, R45Y, K48L
